Key:
Conditions in all cases: both partners purified
complement C5 = molecular target: T1, complement C5; experiment: ELISA; 5 µg/mL C3b or C5 immobilised on Maxisorp plates at 4 °C overnight; increasing concentrations of regulator (0.195-50 nM) in sample buffer (2% BSA in TBS, 0.05% Tween-20); detected with anti-His-tag antibodies; absorbance normalised to the highest concentration; IC50 from a 4PL nonlinear regression
T1 construct: complement C5 beta chain; complement C5 alpha chain; source: bought: CompTech

complement C3b = molecular target: T2, complement C3b (UniProt P01024 749-1663; P01024 749-1663); experiment: as above
T2 construct: C3b beta-chain, cut product of complement C3; C3b alpha'-chain, cut product of complement C3 (alpha chain without C3a); source: bought: CompTech

C9 = molecular target: T3, C9 (human, UniProt P02748 22-559); experiment: ELISA; C5b6, C6, C7, C8, C9, C3b or C5 (5 µg/mL) immobilised on Maxisorp plates; single concentration of regulator (25 nM MFHR13 or MFHR1 variants, 50 nM FHR1); detected with anti-His-tag antibodies
T3 construct: complement component C9; Supplier is stated for the ELISA; also called complement component C9; source: bought: CompTech

C7 = molecular target: T4, C7 (human, UniProt P10643 23-843); experiment: as above
T4 construct: complement component C7; Supplier is stated for the ELISA; also called complement component C7; source: bought: CompTech

C6 = molecular target: T5, C6 (human, UniProt P13671 22-934); experiment: as above
T5 construct: complement component C6; also called complement component C6; source: bought: CompTech

C8 = molecular target: T6, C8 (human, UniProt P07357 31-584; P07358 55-591; P07360 21-202); experiment: as above
T6 construct: also called complement component C8; source: bought: CompTech; copies: + +

C3b = molecular target: T7, C3b (human); experiment: ELISA; decay acceleration assay: 250 ng C3b immobilised on Maxisorp; C3bBb formed with 400 ng Factor B and 25 ng Factor D, 2 h 37 °C; increasing concentrations of regulator, 40 min 37 °C; Bb remaining bound to C3b detected with anti-factor B polyclonal antibody
T7 construct: complement C3, C3b β-chain; complement C3, C3b α′-chain (C3 α-chain after release of C3a); also called complement C3b; source: bought: CompTech

T5 sequence (P13671 22-934): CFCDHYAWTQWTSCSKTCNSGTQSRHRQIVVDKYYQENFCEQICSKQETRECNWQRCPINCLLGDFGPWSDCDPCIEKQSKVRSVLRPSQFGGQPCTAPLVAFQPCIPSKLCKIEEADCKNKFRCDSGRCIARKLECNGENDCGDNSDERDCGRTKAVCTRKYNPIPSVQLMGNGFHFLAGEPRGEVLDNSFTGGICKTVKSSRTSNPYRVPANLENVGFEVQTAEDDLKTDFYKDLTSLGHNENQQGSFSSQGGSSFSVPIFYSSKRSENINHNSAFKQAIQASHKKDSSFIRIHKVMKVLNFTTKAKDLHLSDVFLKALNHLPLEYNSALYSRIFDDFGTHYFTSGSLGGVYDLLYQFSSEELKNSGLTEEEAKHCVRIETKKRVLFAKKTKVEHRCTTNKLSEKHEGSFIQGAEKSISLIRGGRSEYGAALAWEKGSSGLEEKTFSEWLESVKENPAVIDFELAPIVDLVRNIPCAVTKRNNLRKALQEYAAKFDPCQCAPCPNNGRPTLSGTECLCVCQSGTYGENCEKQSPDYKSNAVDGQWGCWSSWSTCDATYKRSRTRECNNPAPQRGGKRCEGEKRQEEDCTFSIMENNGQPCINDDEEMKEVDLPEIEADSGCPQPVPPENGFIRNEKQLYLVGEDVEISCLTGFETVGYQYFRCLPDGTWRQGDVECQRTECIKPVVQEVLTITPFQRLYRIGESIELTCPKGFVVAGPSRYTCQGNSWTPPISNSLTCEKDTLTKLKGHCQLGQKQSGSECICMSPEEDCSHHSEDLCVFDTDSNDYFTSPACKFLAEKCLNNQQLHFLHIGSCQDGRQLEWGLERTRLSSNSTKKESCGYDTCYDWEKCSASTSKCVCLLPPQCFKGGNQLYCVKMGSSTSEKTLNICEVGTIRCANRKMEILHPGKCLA
T6 sequence (P07357 31-584, chain 1 of 3): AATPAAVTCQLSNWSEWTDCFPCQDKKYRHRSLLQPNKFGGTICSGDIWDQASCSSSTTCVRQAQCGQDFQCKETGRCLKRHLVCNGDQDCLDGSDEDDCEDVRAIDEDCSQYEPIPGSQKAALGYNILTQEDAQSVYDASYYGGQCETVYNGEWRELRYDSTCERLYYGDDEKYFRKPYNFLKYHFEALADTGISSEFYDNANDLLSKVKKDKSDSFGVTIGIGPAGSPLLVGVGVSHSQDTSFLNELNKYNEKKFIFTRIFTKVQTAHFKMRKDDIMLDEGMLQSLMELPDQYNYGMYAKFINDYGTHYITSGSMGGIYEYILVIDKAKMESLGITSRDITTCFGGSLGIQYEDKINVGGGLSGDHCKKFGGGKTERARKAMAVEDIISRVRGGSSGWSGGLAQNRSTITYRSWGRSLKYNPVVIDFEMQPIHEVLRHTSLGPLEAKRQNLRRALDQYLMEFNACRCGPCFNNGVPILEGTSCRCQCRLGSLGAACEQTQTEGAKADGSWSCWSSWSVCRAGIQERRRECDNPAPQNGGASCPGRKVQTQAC
T6 sequence (P07358 55-591, chain 2 of 3): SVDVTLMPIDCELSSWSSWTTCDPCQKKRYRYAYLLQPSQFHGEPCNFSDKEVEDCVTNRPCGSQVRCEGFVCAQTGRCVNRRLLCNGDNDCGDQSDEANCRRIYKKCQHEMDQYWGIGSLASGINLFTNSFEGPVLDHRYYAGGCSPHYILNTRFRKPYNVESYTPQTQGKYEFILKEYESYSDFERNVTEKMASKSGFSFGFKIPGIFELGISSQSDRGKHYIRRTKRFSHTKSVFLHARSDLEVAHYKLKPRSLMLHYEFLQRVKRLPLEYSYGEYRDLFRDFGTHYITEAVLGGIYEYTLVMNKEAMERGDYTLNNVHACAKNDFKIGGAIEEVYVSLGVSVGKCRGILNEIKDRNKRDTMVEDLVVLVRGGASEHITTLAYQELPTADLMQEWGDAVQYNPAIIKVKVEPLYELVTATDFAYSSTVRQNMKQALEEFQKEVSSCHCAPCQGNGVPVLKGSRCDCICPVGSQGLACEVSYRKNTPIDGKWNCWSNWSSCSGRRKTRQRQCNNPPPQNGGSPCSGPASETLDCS
T6 sequence (P07360 21-202, chain 3 of 3): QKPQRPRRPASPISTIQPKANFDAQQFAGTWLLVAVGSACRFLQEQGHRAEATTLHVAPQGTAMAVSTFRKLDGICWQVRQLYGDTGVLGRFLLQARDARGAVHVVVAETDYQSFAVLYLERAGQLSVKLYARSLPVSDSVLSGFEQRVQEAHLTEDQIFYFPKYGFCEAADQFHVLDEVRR
T4 sequence (P10643 23-843): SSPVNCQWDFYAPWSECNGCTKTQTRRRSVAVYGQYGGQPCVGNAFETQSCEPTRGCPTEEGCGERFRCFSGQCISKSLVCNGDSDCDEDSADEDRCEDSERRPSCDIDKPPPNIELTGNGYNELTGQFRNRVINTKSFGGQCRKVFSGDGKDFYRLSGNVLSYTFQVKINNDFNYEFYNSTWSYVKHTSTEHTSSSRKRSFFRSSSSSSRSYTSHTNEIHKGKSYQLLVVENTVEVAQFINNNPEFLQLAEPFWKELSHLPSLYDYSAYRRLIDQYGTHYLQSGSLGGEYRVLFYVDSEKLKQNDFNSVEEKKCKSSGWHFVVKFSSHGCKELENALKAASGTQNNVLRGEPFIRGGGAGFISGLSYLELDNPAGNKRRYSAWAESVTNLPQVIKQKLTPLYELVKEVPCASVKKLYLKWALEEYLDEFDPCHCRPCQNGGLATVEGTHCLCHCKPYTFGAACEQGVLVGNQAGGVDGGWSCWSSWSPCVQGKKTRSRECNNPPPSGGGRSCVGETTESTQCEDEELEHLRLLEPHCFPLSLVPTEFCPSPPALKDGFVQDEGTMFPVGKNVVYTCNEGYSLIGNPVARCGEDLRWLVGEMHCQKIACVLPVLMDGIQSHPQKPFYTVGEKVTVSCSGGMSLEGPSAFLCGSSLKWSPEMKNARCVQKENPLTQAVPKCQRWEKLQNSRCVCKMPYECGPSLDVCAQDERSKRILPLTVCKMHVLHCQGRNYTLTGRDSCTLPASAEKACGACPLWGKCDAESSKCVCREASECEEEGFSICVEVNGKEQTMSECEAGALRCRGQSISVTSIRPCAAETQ
T3 sequence (P02748 22-559): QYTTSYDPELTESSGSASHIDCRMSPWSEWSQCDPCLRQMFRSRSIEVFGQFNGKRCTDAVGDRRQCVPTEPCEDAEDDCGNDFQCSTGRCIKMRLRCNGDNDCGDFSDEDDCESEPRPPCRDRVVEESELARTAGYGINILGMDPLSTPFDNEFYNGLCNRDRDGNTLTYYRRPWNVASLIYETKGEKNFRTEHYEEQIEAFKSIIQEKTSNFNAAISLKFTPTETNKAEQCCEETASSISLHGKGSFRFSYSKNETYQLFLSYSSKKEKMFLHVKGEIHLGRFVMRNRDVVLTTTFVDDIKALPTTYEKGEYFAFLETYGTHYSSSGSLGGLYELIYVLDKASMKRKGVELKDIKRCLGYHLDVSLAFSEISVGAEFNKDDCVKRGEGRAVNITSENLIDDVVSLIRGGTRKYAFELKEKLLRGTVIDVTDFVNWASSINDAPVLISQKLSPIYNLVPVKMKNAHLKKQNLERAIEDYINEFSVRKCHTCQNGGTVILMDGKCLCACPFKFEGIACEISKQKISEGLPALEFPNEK

B1: MFHR13 (FHR1_(1-2):FH1-4:FH13:FH_(19-20)) (other)
chain: EATFCDFPKINHGILYDEEKYKPFSQVPTGEVFYYSCEYNFVSPSKSFWTRITCTEEGWSPTPKCLRLCFFPFVENGHSESSGQTHLEGDTVQIICNTGYRLQNNENNISCVERGWSTPPKCRSEDCNELPPRRNTEILTGSWSDQTYPEGTQAIYKCRPGYRSLGNIIMVCRKGEWVALNPLRKCQKRPCGHPGDTPFGTFTLTGGNVFEYGVKAVYTCNEGYQLLGEINYRECDTDGWTNDIPICEVVKCLPVTAPENGKIVSSAMEPDREYHFGQAVRFVCNSGYKIEGDEEMHCSDDGFWSKEKPKCVEISCKSPDVINGSPISQKIIYKENERFQYKCNMGYEYSERGDAVCTESGWRPLPSCVAIDKLKKCKSSNLIILEEHLKNKKEFDHNSNIRYRCRGKEGWIHTVCINGRWDPEVNCSMAQIQLCGPPPPIDNGDITSFPLSVYAPASSVEYQCQNLYQLEGNKRITCRNGQWSEPPKCLHPCVISREIMENYNIALRWTAKQKLYSRTGESVEFVCKRGYRLSSRSHTLRTTCWDGKLEYPTCAKR
Q: B1 was tested. Which IC50 (complement C5) did it give?
A: 52.5 nM

Q: What about the IC50 (complement C3b) of the same binder?
A: 16.1 nM

B2: Recombinant FHR1 (human FH-related protein 1) with a C-terminal 6x His-tag (natural protein, UniProt Q03591 19-330, looked up)
chain: EATFCDFPKINHGILYDEEKYKPFSQVPTGEVFYYSCEYNFVSPSKSFWTRITCTEEGWSPTPKCLRLCFFPFVENGHSESSGQTHLEGDTVQIICNTGYRLQNNENNISCVERGWSTPPKCRSTDTSCVNPPTVQNAHILSRQMSKYPSGERVRYECRSPYEMFGDEEVMCLNGNWTEPPQCKDSTGKCGPPPPIDNGDITSFPLSVYAPASSVEYQCQNLYQLEGNKRITCRNGQWSEPPKCLHPCVISREIMENYNIALRWTAKQKLYLRTGESAEFVCKRGYRLSSRSHTLRTTCWDGKLEYPTCAKR
notes: complement factor H-related protein 1 (FHR1), human; source: bought: Abcam 152006; not shown: His6, C-terminal, kept
Q: Does B2 bind (C9)?
A: binds

Q: Does B2 bind (C7)?
A: binds

Q: Does B2 bind (C6)?
A: binds

Q: Does B2 bind (C8)?
A: binds

B3: MFHR13 (FHR1_(1-2):FH1-4:FH13:FH_(19-20)) (other)
chain: EATFCDFPKINHGILYDEEKYKPFSQVPTGEVFYYSCEYNFVSPSKSFWTRITCTEEGWSPTPKCLRLCFFPFVENGHSESSGQTHLEGDTVQIICNTGYRLQNNENNISCVERGWSTPPKCRSTEDCNELPPRRNTEILTGSWSDQTYPEGTQAIYKCRPGYRSLGNIIMVCRKGEWVALNPLRKCQKRPCGHPGDTPFGTFTLTGGNVFEYGVKAVYTCNEGYQLLGEINYRECDTDGWTNDIPICEVVKCLPVTAPENGKIVSSAMEPDREYHFGQAVRFVCNSGYKIEGDEEMHCSDDGFWSKEKPKCVEISCKSPDVINGSPISQKIIYKENERFQYKCNMGYEYSERGDAVCTESGWRPLPSCVAIDKLKKCKSSNLIILEEHLKNKKEFDHNSNIRYRCRGKEGWIHTVCINGRWDPEVNCSMAQIQLCGPPPPIDNGDITSFPLSVYAPASSVEYQCQNLYQLEGNKRITCRNGQWSEPPKCLHPCVISREIMENYNIALRWTAKQKLYSRTGESVEFVCKRGYRLSSRSHTLRTTCWDGKLEYPTCAKR
modifications: N-glycan at the NIS site in FHR1 SCR2 (around 65% occupied); N-glycan at the NCS site in FH13 (fully glycosylated); glycosylation site in FH4 deamidated and not glycosylated; labelled with NT-647 RED-NHS for MST
Q: Which IC50 (C3b) does the source give for B3 here?
A: 2.7 nM

Reference: paper PMC8863895, “A synthetic protein as efficient multitarget regulator against complement over-activation” (Communications Biology, 2022)
